Test results published in US20200283478A1 (Genentech, published 2020).
Ends that are not written are not given here. * marks the point of attachment. Pentanoyl = CCCCC(=O)*

B1: Compound 177 (peptide)
peptide: Pentanoyl-WNLVRIGLER-NH2
SMILES: CCCCC(=O)N[C@@H](Cc1c[nH]c2ccccc12)C(=O)N[C@@H](CC(N)=O)C(=O)N[C@@H](CC(C)C)C(=O)N[C@H](C(=O)N[C@@H](CCCNC(=N)N)C(=O)N[C@H](C(=O)NCC(=O)N[C@@H](CC(C)C)C(=O)N[C@@H](CCC(=O)O)C(=O)N[C@@H](CCCNC(=N)N)C(N)=O)[C@@H](C)CC)C(C)C
B2: Compound 178 (peptide)
peptide: Pentanoyl-WNLVRIGLDR-NH2
SMILES: CCCCC(=O)N[C@@H](Cc1c[nH]c2ccccc12)C(=O)N[C@@H](CC(N)=O)C(=O)N[C@@H](CC(C)C)C(=O)N[C@H](C(=O)N[C@@H](CCCNC(=N)N)C(=O)N[C@H](C(=O)NCC(=O)N[C@@H](CC(C)C)C(=O)N[C@@H](CC(=O)O)C(=O)N[C@@H](CCCNC(=N)N)C(N)=O)[C@@H](C)CC)C(C)C
B3: Compound 179 (peptide)
peptide: Pentanoyl-WNLVRIGLGR-NH2
SMILES: CCCCC(=O)N[C@@H](Cc1c[nH]c2ccccc12)C(=O)N[C@@H](CC(N)=O)C(=O)N[C@@H](CC(C)C)C(=O)N[C@H](C(=O)N[C@@H](CCCNC(=N)N)C(=O)N[C@H](C(=O)NCC(=O)N[C@@H](CC(C)C)C(=O)NCC(=O)N[C@@H](CCCNC(=N)N)C(N)=O)[C@@H](C)CC)C(C)C
B4: Compound 180 (peptide)
peptide: Pentanoyl-WNLVRIGLAR-NH2
SMILES: CCCCC(=O)N[C@@H](Cc1c[nH]c2ccccc12)C(=O)N[C@@H](CC(N)=O)C(=O)N[C@@H](CC(C)C)C(=O)N[C@H](C(=O)N[C@@H](CCCNC(=N)N)C(=O)N[C@H](C(=O)NCC(=O)N[C@@H](CC(C)C)C(=O)N[C@@H](C)C(=O)N[C@@H](CCCNC(=N)N)C(N)=O)[C@@H](C)CC)C(C)C
B5: Compound 181 (peptide)
peptide: Pentanoyl-WNLVRIGLSR-NH2
SMILES: CCCCC(=O)N[C@@H](Cc1c[nH]c2ccccc12)C(=O)N[C@@H](CC(N)=O)C(=O)N[C@@H](CC(C)C)C(=O)N[C@H](C(=O)N[C@@H](CCCNC(=N)N)C(=O)N[C@H](C(=O)NCC(=O)N[C@@H](CC(C)C)C(=O)N[C@@H](CO)C(=O)N[C@@H](CCCNC(=N)N)C(N)=O)[C@@H](C)CC)C(C)C
B6: Compound 182 (peptide)
peptide: WNLVRIGTLR
modifications: also: further groups not given here
notes: Structure printed only as a drawing
B7: Compound 183 (peptide)
peptide: WNLVRIGTLR
modifications: also: further groups not given here
notes: as for B6
B8: Compound 184 (peptide)
peptide: WNLVRIGTLR
modifications: also: further groups not given here
notes: as for B6
B9: Compound 185 (peptide)
peptide: WNLVRIGTLR
modifications: also: further groups not given here
notes: as for B6
B10: Compound 188 (peptide)
peptide: WNLVRIGLTR
modifications: also: further groups not given here
notes: as for B6
B11: Compound 189 (peptide)
peptide: WNLVRIGLTR
modifications: also: further groups not given here
notes: as for B6
B12: Compound 190 (peptide)
peptide: WNLVRIGLTR
modifications: also: further groups not given here
notes: as for B6
B13: Compound 124 (peptide)
peptide: Ac-GLMPWNLVRIGLLR-NH2
B14: Compound 125 (peptide)
peptide: Ac-GGMPWNLVRIGLLR-NH2
B15: Compound 126 (peptide)
peptide: WNLVRIGLLR
modifications: also: further groups not given here
notes: as for B6
B16: Compound 127 (peptide)
peptide: WNLVRIGLLR
modifications: also: further groups not given here
notes: as for B6
B17: Compound 128 (peptide)
peptide: WNLVRIGLLR
modifications: also: further groups not given here
notes: as for B6
B18: Compound 129 (peptide)
peptide: WNLVRIGLLR
modifications: also: further groups not given here
notes: as for B6
B19: Compound 130 (peptide)
peptide: WNLVRIGLLR
modifications: also: further groups not given here
notes: as for B6
B20: Compound 131 (peptide)
peptide: WNLVRIGLLR
modifications: also: further groups not given here
notes: as for B6
B21: Compound 132 (peptide)
peptide: WNLVRIGLLR
modifications: also: further groups not given here
notes: as for B6
B22: Compound 133 (peptide)
peptide: WNLVRIGLLR
modifications: also: further groups not given here
notes: as for B6
B23: Compound 134 (peptide)
peptide: WNLVRIGLLR
modifications: also: further groups not given here
notes: as for B6
B24: Compound 135 (peptide)
peptide: WNLVRIGLLR
modifications: also: further groups not given here
notes: as for B6
B25: Compound 136 (peptide)
peptide: WNLVRIGLLR
modifications: also: further groups not given here
notes: as for B6
B26: Compound 137 (peptide)
peptide: WNLVRIGLLR
modifications: also: further groups not given here
notes: as for B6
B27: Compound 138 (peptide)
peptide: WNLVRIGLLR
modifications: also: further groups not given here
notes: as for B6
B28: Compound 139 (peptide)
peptide: WNLVRIGLLR
modifications: also: further groups not given here
notes: as for B6
B29: Compound 140 (peptide)
peptide: WNLVRIGLLR
modifications: also: further groups not given here
notes: as for B6
B30: Compound 141 (peptide)
peptide: WNLVRIGLLR
modifications: also: further groups not given here
notes: as for B6
B31: Compound 142 (peptide)
peptide: WNLVRIGLLR
modifications: also: further groups not given here
notes: as for B6
B32: Compound 143 (peptide)
peptide: WNLVRIGLLR
modifications: also: further groups not given here
notes: as for B6
B33: Compound 144 (peptide)
peptide: WNLVRIGLLR
modifications: also: further groups not given here
notes: as for B6
B34: Compound 145 (peptide)
peptide: WNLVRIGLLR
modifications: also: further groups not given here
notes: as for B6
B35: Compound 146 (peptide)
peptide: WNLVRIGLLR
modifications: also: further groups not given here
notes: as for B6
B36: Compound 147 (peptide)
peptide: WNLVRIGLLR
modifications: also: further groups not given here
notes: as for B6
B37: Compound 148 (peptide)
peptide: WNLVRIGLLR
modifications: also: further groups not given here
notes: as for B6
B38: Compound 149 (peptide)
peptide: WNLVRIGLLR
modifications: also: further groups not given here
notes: as for B6
B39: Compound 150 (peptide)
peptide: WNLVRIGLLR
modifications: also: further groups not given here
notes: as for B6
B40: Compound 151 (peptide)
peptide: WNLVRIGLLR
modifications: also: further groups not given here
notes: as for B6
B41: Compound 152 (peptide)
peptide: Pentanoyl-WNLVRIGLLR

Each binder was assayed against T1, His-tagged PCSK9Δhelix (human, UniProt Q8NBP7 31-152; Q8NBP7 168-692) (assay: TR-FRET competition; His-PCSK9Δhelix, competitor Ab20).
T1 construct: Construct M1-Q692 with engineered TEV site, cut by TEV protease; new N-terminus of the catalytic domain is S-A168; also called His-PCSK9Δhelix
T1 sequence (Q8NBP7 31-152, stated change not applied, chain 1 of 2): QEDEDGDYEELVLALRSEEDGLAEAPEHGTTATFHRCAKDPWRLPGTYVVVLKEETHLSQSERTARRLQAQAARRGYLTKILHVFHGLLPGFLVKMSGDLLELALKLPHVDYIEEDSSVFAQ
T1 sequence (Q8NBP7 other isoform, or with tags, fused parts or gaps mutant, chain 2 of 2): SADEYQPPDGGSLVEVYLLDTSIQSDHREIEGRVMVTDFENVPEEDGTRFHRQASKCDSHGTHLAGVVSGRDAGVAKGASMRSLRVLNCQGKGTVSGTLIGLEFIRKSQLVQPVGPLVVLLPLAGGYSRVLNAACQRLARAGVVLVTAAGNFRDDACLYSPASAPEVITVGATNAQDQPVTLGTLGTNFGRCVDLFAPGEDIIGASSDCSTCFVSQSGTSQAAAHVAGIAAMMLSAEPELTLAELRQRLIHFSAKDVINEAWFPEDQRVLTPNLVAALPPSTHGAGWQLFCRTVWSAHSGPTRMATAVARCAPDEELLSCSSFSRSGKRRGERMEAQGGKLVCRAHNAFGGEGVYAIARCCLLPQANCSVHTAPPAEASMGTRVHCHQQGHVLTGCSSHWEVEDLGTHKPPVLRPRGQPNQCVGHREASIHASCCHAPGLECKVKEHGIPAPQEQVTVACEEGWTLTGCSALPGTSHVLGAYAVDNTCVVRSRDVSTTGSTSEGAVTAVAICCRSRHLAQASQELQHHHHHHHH
Protocol: (§1) Signal generation in the PCSK9 binding assays was dependent upon the binding interaction to bring into close proximity the His-tag on the PCSK9 and the Fc-tag on the ligand. Anti-His-APC was bound to the His-tag, and anti-Fc-europium was bound to the Fc-tag.
(§2) Compounds were solubilized and dilutions were prepared in DMSO. […] The plate was centrifuged to mix the well contents and allowed to incubate for 30 min. […] The normalized TR-FRET ratios were plotted as a function of the compound concentrations, and the IC₅₀ values were determined using a 4-parameter logistic regression.
In the case of B1, the IC50 is reported as 35 µM. B2 showed an IC50 of 18 µM. In the case of B3, the IC50 is reported as 11 µM. B4 showed an IC50 of 12 µM. With B5 the IC50 was 8.9 µM. Work on B6 yielded an IC50 of 4 µM. B7 gave an IC50 of 2.5 µM. With B8 the IC50 was 12 µM. Binder B9 has an IC50 of 0.39 µM. B10 was tested, and the IC50 was 7.6 µM. With B11 the IC50 was 12 µM. B12 was tested, and the IC50 was 7 µM. With B13 the IC50 was 3.9 µM. Binder B14 has an IC50 of 7 µM. In the case of B15, the IC50 is reported as 19 µM. With B16 the IC50 was 29 µM. B17 gave an IC50 of 7.5 µM. B18 was tested, and the IC50 was 23 µM. B19 was tested, and the IC50 was 8.6 µM. Binder B20 has an IC50 of 6.7 µM. With B21 the IC50 was 9 µM. In the case of B22, the IC50 is reported as 17 µM. In the case of B23, the IC50 is reported as 4.2 µM. With B24 the IC50 was 10 µM. Binder B25 has an IC50 of 9 µM. In the case of B26, the IC50 is reported as 6.7 µM. For B27, the IC50 was 4.9 µM. For B28, the IC50 was 19 µM. For B29, the IC50 was 26 µM. B30 was tested, and the IC50 was 36 µM. In the case of B31, the IC50 is reported as 15 µM. With B32 the IC50 was 23 µM. In the case of B33, the IC50 is reported as 4 µM. B34 showed an IC50 of 2.2 µM. B35 gave an IC50 of 1.7 µM. B36 showed an IC50 of 0.41 µM. Work on B37 yielded an IC50 of 11 µM. B38 was tested, and the IC50 was 8.9 µM. In the case of B39, the IC50 is reported as 8.2 µM. B40 gave an IC50 of 2.5 µM. Work on B41 yielded an IC50 of 14 µM.

What follows are binders tested against T2, His-tagged, full-length PCSK9 (human, UniProt Q8NBP7 31-692) (assay: TR-FRET competition; His-PCSK9, competitor EGF(A)-Fc).
T2 construct: The secreted protein is autocleaved into a prodomain and a catalytic/Cys-rich chain that starts at S153; also called His-PCSK9
T2 sequence (Q8NBP7 other isoform, or with tags, fused parts or gaps limits assumed): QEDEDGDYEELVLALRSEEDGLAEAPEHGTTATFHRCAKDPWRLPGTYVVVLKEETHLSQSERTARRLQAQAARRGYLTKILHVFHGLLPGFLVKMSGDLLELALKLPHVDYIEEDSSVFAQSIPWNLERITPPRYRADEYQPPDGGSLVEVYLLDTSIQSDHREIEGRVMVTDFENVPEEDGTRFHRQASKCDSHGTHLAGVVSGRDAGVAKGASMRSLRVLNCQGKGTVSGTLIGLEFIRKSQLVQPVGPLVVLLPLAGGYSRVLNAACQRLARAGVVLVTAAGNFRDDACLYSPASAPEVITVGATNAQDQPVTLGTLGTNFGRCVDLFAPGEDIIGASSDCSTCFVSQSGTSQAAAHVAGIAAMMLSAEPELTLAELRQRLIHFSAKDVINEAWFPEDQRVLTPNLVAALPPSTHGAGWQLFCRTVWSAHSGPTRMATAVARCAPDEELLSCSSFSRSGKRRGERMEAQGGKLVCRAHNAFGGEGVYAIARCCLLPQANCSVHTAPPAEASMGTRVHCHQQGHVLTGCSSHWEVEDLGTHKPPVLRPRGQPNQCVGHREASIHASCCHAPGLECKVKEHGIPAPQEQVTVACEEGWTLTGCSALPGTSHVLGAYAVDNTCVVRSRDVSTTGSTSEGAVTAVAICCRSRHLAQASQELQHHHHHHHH
Protocol: as §1, §2
In the case of B1, the IC50 is reported as no less than 50 µM. B2 showed an IC50 of no less than 50 µM. For B3, the IC50 was no less than 50 µM. Binder B4 has an IC50 of no less than 50 µM. For B5, the IC50 was no less than 50 µM. Work on B6 yielded an IC50 of 14 µM. In the case of B7, the IC50 is reported as 18 µM. B8 gave an IC50 of 19 µM. With B9 the IC50 was 5.7 µM. Binder B10 has an IC50 of 22 µM. B11 gave an IC50 of 38 µM. B12 was tested, and the IC50 was 30 µM. In the case of B13, the IC50 is reported as no less than 50 µM. B14 was tested, and the IC50 was no less than 50 µM. B15 was tested, and the IC50 was no less than 50 µM. With B16 the IC50 was no less than 50 µM. For B17, the IC50 was no less than 50 µM. In the case of B18, the IC50 is reported as no less than 50 µM. B19 was tested, and the IC50 was no less than 50 µM. Work on B20 yielded an IC50 of no less than 50 µM. Binder B21 has an IC50 of no less than 50 µM. B22 showed an IC50 of no less than 50 µM. In the case of B23, the IC50 is reported as no less than 50 µM. For B24, the IC50 was no less than 50 µM. With B25 the IC50 was no less than 50 µM. B26 was tested, and the IC50 was no less than 50 µM. With B27 the IC50 was 48 µM. B28 showed an IC50 of no less than 50 µM. With B29 the IC50 was no less than 50 µM. B30 gave an IC50 of no less than 50 µM. B31 gave an IC50 of no less than 50 µM. B32 gave an IC50 of no less than 50 µM. B33 gave an IC50 of 9.7 µM. With B34 the IC50 was 7.3 µM. For B35, the IC50 was 11 µM. In the case of B36, the IC50 is reported as 2.6 µM. B37 was tested, and the IC50 was 19 µM. Work on B38 yielded an IC50 of 11 µM. In the case of B39, the IC50 is reported as 22 µM. Work on B40 yielded an IC50 of 6.9 µM. For B41, the IC50 was 43 µM.
